Experimental data published in patent US20210040184A1 (ATRECA, published 2021).
Changes are numbered by the printed parent chain.

B1: NglycoSA (antibody, V domains shown)
VH: ADLVQSGAVVKKPGDSVRISCEAQGYRFPDYIIHWIRRAPGQGPEWMGWMNPMGGQVNIPWKFQGRVSMTRDTSIETAFLDLRGLKSDDTAVYYCVRDRSNGAGKRFESSNWFLDLWGRGTAVTIQS
VL: QSALTQPRSVSASPGQSVTISCTGTHNLVSWCQHQPGRAPKLLIYDFNKRPSGVPDRFSGSGSGGTASLTITGLQDDDDAEYFCWAYEAFGGGTKLTVL
B2: Cd4bs_H53MS_H54GY (antibody, V domains shown)
VH: B1 VH with M53S, G54Y, A103S
VL: B1 VL
B3: CysCV (antibody, V domains shown)
VH: B1 VH with A103S
VL: B1 VL with C32V
B4: Germ12_NglycoSA_CysCV (antibody, V domains shown)
VH: QVDLVQSGAVVKKPGDSVRVSCEAQGYRFPDYIIHWIRRAPGQGPEWMGWMNPMGGQVNIPWKFQGRVSMTRDTSIETAYMDLRGLRSDDTAVYYCVRDRSNGAGKRFESSNWFLDLWGRGTLVTVSS
VL: B1 VL with A12G, C32V, T72S, D77E

biological target: HIV-1 REJO4541.67 envelope (Env) on Env.IMC.LucR virus (HIV-1 clade B); assay: cell-based or functional assay

Binder | IC50 of virus neutralization (TZM-BL, luciferase)
B1 | 0.04 µg/mL
B2 | 0.044 µg/mL
B3 | ≤ 0.02 µg/mL
B4 | ≤ 0.02 µg/mL

biological target: HIV-1 DU422.1 envelope (Env) on Env.IMC.LucR virus (HIV-1 clade C); assay: cell-based or functional assay

Binder | IC50 of virus neutralization (TZM-BL, luciferase)
B1 | > 50 µg/mL
B2 | 0.89 µg/mL
B3 | > 50 µg/mL
B4 | > 50 µg/mL

biological target: HIV-1 THRO4156.18 envelope (Env) on Env.IMC.LucR virus (HIV-1 clade B); assay: cell-based or functional assay

Binder | IC50 of virus neutralization (TZM-BL, luciferase)
B1 | 0.929 µg/mL
B3 | 1.4 µg/mL
B4 | 11.7 µg/mL

biological target: HIV-1 WITO4160.33 envelope (Env) on Env.IMC.LucR virus (HIV-1 clade B); assay: cell-based or functional assay

Binder | IC50 of virus neutralization (TZM-BL, luciferase)
B1 | 0.179 µg/mL
B2 | 0.15 µg/mL
B3 | 0.186 µg/mL
B4 | 0.488 µg/mL

biological target: HIV-1 DU172.17 envelope (Env) on Env.IMC.LucR virus (HIV-1 clade C); assay: cell-based or functional assay

Binder | IC50 of virus neutralization (TZM-BL, luciferase)
B1 | 0.11 µg/mL
B2 | 0.273 µg/mL
B3 | 0.102 µg/mL
B4 | 0.714 µg/mL

biological target: HIV-1 AC10.0.29 envelope (Env) on Env.IMC.LucR virus (HIV-1 clade B); assay: cell-based or functional assay

Binder | IC50 of virus neutralization (TZM-BL, luciferase)
B1 | > 50 µg/mL
B2 | 3 µg/mL
B3 | > 50 µg/mL
B4 | > 50 µg/mL

biological target: HIV-1 ZM233M.PB6 envelope (Env) on Env.IMC.LucR virus (HIV-1 clade C); assay: cell-based or functional assay

Binder | IC50 of virus neutralization (TZM-BL, luciferase)
B1 | 0.151 µg/mL
B2 | 0.096 µg/mL
B3 | 0.079 µg/mL
B4 | 0.731 µg/mL

biological target: HIV-1 X1632_S2_B10 envelope (Env) on Env.IMC.LucR virus (HIV-1 clade G); assay: cell-based or functional assay

Binder | IC50 of virus neutralization (TZM-BL, luciferase)
B1 | > 50 µg/mL
B2 | 9.87 µg/mL
B3 | > 50 µg/mL
B4 | > 50 µg/mL

biological target: HIV-1 CNE20 envelope (Env) on Env.IMC.LucR virus (HIV-1 clade BC); assay: cell-based or functional assay

Binder | IC50 of virus neutralization (TZM-BL, luciferase)
B1 | 0.05 µg/mL
B2 | 0.047 µg/mL
B3 | 0.037 µg/mL
B4 | 0.059 µg/mL

biological target: HIV-1 CAP45.2.00.G3 envelope (Env) on Env.IMC.LucR virus (HIV-1 clade C); assay: cell-based or functional assay

Binder | IC50 of virus neutralization (TZM-BL, luciferase)
B1 | 0.037 µg/mL
B2 | 0.03 µg/mL
B3 | 0.035 µg/mL
B4 | 0.047 µg/mL
